Substitutions are numbered along the chain they refer to.

Experimental findings from article PMC8528929 are described below.

The target in this assay is biotinylated SARS-CoV-2 RBD (SARS-CoV-2) (UniProt P0DTC2). The experiment in a line: flow cytometry on antigen-coated beads.

B1: 12H2 (antibody, V domains shown)
VH: EVQLQESGPGLVKPSQSLFLTCTVTGYSITSDYAWNWIRQFPGNKLEWMGYITYSGSTSYNPSLKSRISITRDTSKNQFFLQLNSVTTEDTATYYCARGDGYFFPLDYWGQGTTLTVSS
VL: DIVMTQSPSSLSVSAGEKVTMSCKSSQSLLNSGNQKSYLAWYQQRPGQPPKLLIYGASTRESGVPDRFTGSGSGTDFTLTISSVQAEDLAVYYCQNDHSYPPTFGAGTKLELK
With B1, the concentration for a half-maximal effect (EC50) (commonly the concentration giving half of the maximal effect) was 0.066 nM.

B2: 13I1 (antibody, V domains shown)
VH: B1 VH with F19S, K65R, T88S, F103Y
VL: B1 VL with S32G, R45K
The molecule B2 displayed an EC50 of 0.082 nM.
